Square brackets hold non-standard residues; d marks the D form. * marks the point of attachment. Butanoyl(4-Ph) = O=C(CCCc1ccccc1)*; Butanoyl(4-ethynyl) = C#CCCCC(=O)*
Experiments:
[1] = target: human melanocortin 1 receptor (human) (UniProt Q01726); experiment: time-resolved lanthanide fluorescence competitive binding vs Eu-labeled NDP-alpha-MSH; 10% ligand loading
[2] = target: human melanocortin 1 receptor (human) (UniProt Q01726); experiment: time-resolved lanthanide fluorescence competitive binding; reference 1-targeted UXL micelles
[3] = target: human melanocortin 1 receptor (human) (UniProt Q01726); experiment: competitive binding vs Eu-NDP-alpha-MSH, time-resolved fluorescence, HCT116/hMC1R cells; concentration normalized to the targeting group

Sequence of human melanocortin 1 receptor (human) (Q01726 whole entry): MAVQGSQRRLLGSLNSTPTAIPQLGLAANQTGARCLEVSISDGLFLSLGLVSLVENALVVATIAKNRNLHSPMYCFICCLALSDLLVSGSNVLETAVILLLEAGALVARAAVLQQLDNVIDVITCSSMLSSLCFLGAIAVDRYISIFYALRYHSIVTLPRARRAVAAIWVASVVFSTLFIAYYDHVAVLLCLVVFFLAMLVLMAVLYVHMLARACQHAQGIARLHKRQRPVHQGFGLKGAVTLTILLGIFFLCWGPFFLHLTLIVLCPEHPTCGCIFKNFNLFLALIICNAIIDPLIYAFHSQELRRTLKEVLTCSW

Row | Binder | Ki [1] [nM] | fold lower Ki than the corresponding UXL micelles [2] [times] | Ki [3] [nM]
1 | {Butanoyl(4-Ph)}-H[dF]RWGK(Butanoyl(4-ethynyl))-NH2 (peptide, part only; not given: crosslinked triblock polymer, part only, also: Fe(III)-crosslinked micelle) | 2.9 | 4 | –
2 | {Butanoyl(4-Ph)}-H[dF]RWGK(Butanoyl(4-ethynyl))-NH2 (peptide, part only; not given: uncrosslinked triblock polymer, part only, also: uncrosslinked micelle) | 12 | – | –
3 | {Butanoyl(4-Ph)}-H[dF]RWGK(Butanoyl(4-ethynyl))-NH2 (peptide, part only; not given: triblock polymer, part only, not fully specified; printed as 4-phenylbutyryl-His-DPhe-Arg-Trp-Gly-Lys(hex-5-ynoyl)-NH2; also: Lys hex-5-ynoyl clicked via 1,2,3-triazole to PEG azide of triblock polymer micelle) [4-targeted triblock polymer micelles] | – | – | 11.5

From US20160175384A1
